Target: MBP‐Spz, maltose‐binding protein‐tagged Spz (Drosophila melanogaster) (UniProt P48607)
Chain of UniProt P48607 (P48607 26-326): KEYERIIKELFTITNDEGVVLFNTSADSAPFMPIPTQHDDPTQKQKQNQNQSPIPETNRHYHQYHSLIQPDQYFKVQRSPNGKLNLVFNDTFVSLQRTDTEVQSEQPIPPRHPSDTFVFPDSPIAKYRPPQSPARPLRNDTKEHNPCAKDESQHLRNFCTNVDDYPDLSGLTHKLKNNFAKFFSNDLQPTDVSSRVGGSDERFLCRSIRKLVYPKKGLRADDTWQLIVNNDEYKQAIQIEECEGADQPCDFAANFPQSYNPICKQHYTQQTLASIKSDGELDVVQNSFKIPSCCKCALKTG

GST‐ETS1, glutathione S‐transferase‐tagged ETS1 (enzyme)
degradation of Spz by purified ETS1 (SDS‐PAGE band intensity, 0–4 h, 1 mM each CoCl2 and CaCl2): about half within 1 h, 80% after 4 h: 80%
